Measurements published in patent publication US9744222B2, “Peptide for vaccine” (Circassia Limited, priority 2007, dated 2017).
Blank lines part the entries; values can stand above or below the molecule they belong to. Where a SMILES comes first, the peptide text is derived from it.

What was measured:
[1] = Solubility pre-screen of peptides; details: pre-screened for solubility in an aqueous, acidic milieu; YES/NO
DQA1*0102/DQB1*0602 = DQA1*0102/DQB1*0602 (Homo sapiens, UniProt P01909+P01920, A157G/A45G/C70R/E118A/E183D/E77G/F83G/G63E/H151Q/H199R/H252R/H253Q/I129T/I235V/I88M/INS77G/K197Q/L117V/L119F/L178F/L71W/L74F/L85Q/L91A/L98M/N214S/P87R/Q116E/Q76K/R102G/R240Q/R75S/R78G/S102Y/S185I/S41F/S97I/T121G/T122I/T172A/T86R/V229M/V68A/V73E/Y34C/Y41F/Y58L); assay: Competitive MHC class II binding assay; details: control peptide Human Insulin B 1-15
Procedure: (§1) This is a characteristic of promiscuous HLA-DRB1* binders.
In addition, to identify lower affinity binders, the assay was also carried out under less stringent conditions. All the Der p binding peptides were seen to have a high ratio when tested against this allotype, showing they were low affinity binders compared to the control peptide. The DQA1*0102/DQB1*0602 binding assay uses a peptide from the B-chain of human insulin which is of lower affinity compared to those used in the DR assays. This dictates that the DQ assay is very sensitive and tends to produce very low ratio values for the strongest binders to this MHC Class II allotype. This sensitivity also accounts for the relatively higher number of DQ binding peptides within the panel screened.

DRB1*1101 = DRB1*1101 (Homo sapiens, UniProt P01903+P01911, A100R/A169T/A87E/I96F/K41T/L162R/M171V/P40S/Q125H/Q178H/Q39Y/Q99D/R42S/S66Y/T262R/V115G/W38E); assay: Competitive MHC class II binding assay; details: control peptide Influenza haemagglutinin 307-319
DRB1*1501 = DRB1*1501 (Homo sapiens, UniProt P01903+P01911); assay: Competitive MHC class II binding assay; details: control peptide Human myelin basic protein 85-99
[2] = Precipitation in aqueous solution of the binding assay; type: physicochemical
Description: as §1

DRB1*0701 = DRB1*0701 (Homo sapiens, UniProt P01903+P01911, A100R/A102G/A103Q/D57E/D86V/E43K/F76Y/K127E/L162R/M171V/P40G/Q125H/Q99D/R33Q/R42Y/R54Q/S133A/S66F/T210M/V115G/Y107V/Y59L/Y89S); assay: Competitive MHC class II binding assay; details: control peptide Influenza haemagglutinin 307-319
DRB1*0301 = DRB1*0301 (Homo sapiens, UniProt P01903+P01911, A100K/A102G/A103R/A169T/F55Y/I96L/K41T/L162R/M171V/P40S/Q125H/Q178H/Q39Y/R42S/S66N/T106N/T262R/W38E/Y61H); assay: Competitive MHC class II binding assay; details: control peptide Myco. tuberculosis/leprae hsp 65 2-16
Description: as §1

[3] = test system: human MHC class II allotypes; assay: Competitive MHC class II binding assay, all allotypes; details: competition assay, any allotype
Description: as §1
This is of significance as purities were seen to vary from 60-90%. This would have a considerable effect on the ability of a peptide to compete if it is relatively impure. […] Therefore, if purity is taken into consideration, they may in fact have an equivalent affinity to a peptide of a higher purity.

PBMC's = assay: Cytokine release assay (IL-13, IFN-gamma); type: cell-based, human; details: IL-13 or IFN-gamma response greater than 100 pg/ml
Procedure: Cytokine secretion profiles from PBMC's are analysed in response to the peptide stimulation using the peptides from Example 3.
Thus, an individual was considered to have responded to a peptide if cells from that individual yielded a response greater than 100 pg/ml for either […] or IFN-gamma.

[4] = lowest concentration at which an insoluble white precipitate is seen in the aqueous solution of the binding assay
[5] = lowest concentration at which an insoluble white precipitate is seen, value in brackets

Molecule: CSCC[C@H](NC(=O)[C@H](CCC(=O)O)NC(=O)[C@H](C)NC(=O)[C@H](CCCNC(=N)N)NC(=O)[C@@H](NC(=O)[C@@H](NC(=O)[C@@H](N)CC(=O)O)[C@@H](C)O)C(C)C)C(=O)N[C@H](C(=O)N[C@@H](CCCCN)C(=O)N[C@H](C(=O)N[C@@H](CC(C)C)C(=O)N[C@@H](C)C(=O)N1CCC[C@H]1C(=O)O)C(C)C)[C@@H](C)O [HDM49] (H-DTVRAEMTKVLAP-OH; N-terminus and C-terminus assumed)
Solubility test [1]: YES

Solubility test [1]: YES
Molecule: CC(C)C[C@H](NC(=O)[C@H](CCC(=O)O)NC(=O)[C@H](CCCCN)NC(=O)[C@H](CCCCN)NC(=O)[C@H](Cc1ccccc1)NC(=O)[C@H](C)NC(=O)[C@@H]1CCCN1C(=O)[C@H](C)NC(=O)[C@H](CC(C)C)NC(=O)[C@@H](NC(=O)[C@@H](N)CCCCN)C(C)C)C(=O)N[C@@H](CCC(=O)O)C(=O)N[C@@H](CCCNC(=N)N)C(=O)O [HDM50] (H-KVLAPAFKKELER-OH; N-terminus and C-terminus assumed)

Molecule: CIIHRGKPFQLEA [HDM20]
Relative binding, ratio of own IC50 to that of the control peptide, DQA1*0102 QB1*0602 (DQA1*0102/DQB1*0602): 2.37
Solubility test [1]: YES
Relative binding, ratio of own IC50 to that of the control peptide, DRB1*1101 (DRB1*1101): 28
Relative binding, ratio of own IC50 to that of the control peptide, DRB1*1501 (DRB1*1501): 242.11
Precipitation in assay [2, 4]: None
Relative binding, ratio of own IC50 to that of the control peptide, DRB1*0701 (DRB1*0701): 1.1

Molecule: DGLEVDVPGIDPNACH [HDM23A]
Relative binding, ratio of own IC50 to that of the control peptide, DQA1*0102 QB1*0602 (DQA1*0102/DQB1*0602): 0.76
Relative binding, ratio of own IC50 to that of the control peptide, DRB1*0301 (DRB1*0301): 347
Precipitation in assay [2, 4]: None
MHC Class II binding (in words) [3]: low affinity binding

Molecule: HDDVVSMEYDLAYKL [HDM39A]
Precipitation in assay [2, 4]: 10000 µM
Precipitation in assay [2, 5]: (1.8 mg/ml)

Molecule: SYYRYVAREQS [HDM205]
Ranking of peptides by percentage of responders (in words) (PBMC's): top five peptides

Molecule: VSMEYDLAYKLGDLH [HDM40A]
Precipitation in assay [2, 4]: 10000 µM
Precipitation in assay [2, 5]: (1.8 mg/ml)
